Reference: publication doi:10.1101/2020.09.30.318261

Target: SARS-CoV-2 prefusion stabilised spike ectodomain trimer (SARS-CoV-2) (UniProt P0DTC2)
Assay: cryo-EM structure

SARS-CoV-2 prefusion stabilised spike ectodomain trimer (from UniProt P0DTC2 14-1200) (domain or fragment)
stoichiometry N: 3
